{
  "source": "patent US20160200830A1",
  "about": "(NANJING LEGEND BIOTECH, published 2016)",
  "binders": {"B1": {"name": "sdAb A12659 (VHH)", "VHH": "EVQLVECGGGLVQAGGSLRLSCVASGSGFGINGVIWYRQAPGKQRELVALIKSDGYTNYRESVKGRFTISRDDARNTVWLQMNALEPEDTGVYYCKTPGVPFGQGTQVTVSS"}, "B2": {"name": "sdAb A12666 (VHH)", "VHH": "B1 VHH with E1Q, Q3K, V5E, C7S, I31V, R75K"}, "B3": {"name": "sdAb A12690 (VHH)", "VHH": "B1 VHH with E1Q, C7S, A14P, Q44R, R75K"}, "B4": {"name": "sdAb A12692 (VHH)", "VHH": "B1 VHH with R75K"}, "B5": {"name": "sdAb A13152 (VHH)", "VHH": "B1 VHH with E1Q, C7S, S25P, R75K"}, "B6": {"name": "sdAb A13154 (VHH)", "VHH": "B1 VHH with E1Q, C7S, A14P, R75K, N83S"}, "B7": {"name": "sdAb A13355 (VHH)", "VHH": "B1 VHH with E1Q, Q3K, V5E, C7S, K64R, R75K"}, "B8": {"name": "sdAb A13376 (VHH)", "VHH": "QVKLEESGGGLVQAGGSLRLSCAASGNVFTIAAMAWYRQAPGKERELVAGITTGGSTNYADSVKGRFTISRDNAQNTMYLQMNSLRPEDTAVYFCNAVTKWAARVGGSAEYEYWGQGTQVTVSS"}, "B9": {"name": "sdAb A69476 (VHH)", "VHH": "QVKLEESGGGLVQPGGSLRLSCAASGNVFTIDAMGWYRQAPGKEREVVVGMTNGGKTNYADSVKGRFTISRDNAKNTVSLQMNSLKPEDTAVYYCYARSKLIATINNPYDYWGQGTQVTVSS"}, "B10": {"name": "sdAb A69441 (VHH)", "VHH": "QVKLEESGGGLVQPGGSLRLSCAASGSIFSIKVMGWYRQAPGKQRELVADITSGGSTDYSDSVKGRFTISRDNAKNTVYLQMNSLKPEDTAVYYCNADLGCSGAGSCPDYWGQGTQVTVSS"}, "B11": {"name": "sdAb A69447 (VHH)", "VHH": "QVKLEESGGGSVQAGGSLRLSCTGSGSIFPLNDMGWYRQAPGKQRELVATITRGGTTNYADSVKGRFTISRDSNAKNTVYLQMNSLKVEDTAVYYCNMDNRVGGSYWGQGTQVTVSS", "notes": "Llama sdAb, made in E. coli periplasm, His-tagged, for SPR; not shown: C-terminal histidine tag added by vector pSJF2H"}, "B12": {"name": "sdAb A69449 (VHH)", "VHH": "QVQLVESGGGVVQAGGSLRLSCVASGSVFSIDAMGWYRQAPGNQRELVAAMTNAGSTNYADSVKGRFTISRDNAENTVYLQMNSLKPEDTAVYYCNARSKLIARINNPYEYWGQGTQVTVSS", "notes": "Llama sdAb, made in E. coli periplasm, His-tagged, for SPR; also called A60449; not shown: C-terminal histidine tag added by vector pSJF2H"}, "B13": {"name": "sdAb A69433 (VHH)", "VHH": "QVKLEESGGGLVQAGGSLRLSCVASGNVFGIDAVGWYRQAPGKQRELVAATTTSGSSTNYADSVKGRFTISRDIAKNTVYLQMDSLKPEDTAVYYCYARPKQATLIRDDYWGQGTQVTVSS", "notes": "as for B11"}, "B14": {"name": "sdAb A60219 (VHH)", "VHH": "B1 VHH with E1Q, C7S, R75K", "notes": "Llama sdAb, made in E. coli periplasm, His-tagged, for SPR; also called A602019; not shown: C-terminal histidine tag added by vector pSJF2H"}, "B15": {"name": "sdAb A60401 (VHH)", "VHH": "B8 VHH with A23E, A35G, Y37F, V92A, F94S", "notes": "as for B11"}},
  "note": "Substitutions are numbered along the chain they refer to.",
  "data": [
    {"target": "T1, human transferrin (human, UniProt P02787 20-698)", "T1 construct": "Immobilized on a CM5 chip by amine coupling (SPR) or coated on a plate (phage ELISA)", "T1 sequence (P02787 20-698 limits assumed)": "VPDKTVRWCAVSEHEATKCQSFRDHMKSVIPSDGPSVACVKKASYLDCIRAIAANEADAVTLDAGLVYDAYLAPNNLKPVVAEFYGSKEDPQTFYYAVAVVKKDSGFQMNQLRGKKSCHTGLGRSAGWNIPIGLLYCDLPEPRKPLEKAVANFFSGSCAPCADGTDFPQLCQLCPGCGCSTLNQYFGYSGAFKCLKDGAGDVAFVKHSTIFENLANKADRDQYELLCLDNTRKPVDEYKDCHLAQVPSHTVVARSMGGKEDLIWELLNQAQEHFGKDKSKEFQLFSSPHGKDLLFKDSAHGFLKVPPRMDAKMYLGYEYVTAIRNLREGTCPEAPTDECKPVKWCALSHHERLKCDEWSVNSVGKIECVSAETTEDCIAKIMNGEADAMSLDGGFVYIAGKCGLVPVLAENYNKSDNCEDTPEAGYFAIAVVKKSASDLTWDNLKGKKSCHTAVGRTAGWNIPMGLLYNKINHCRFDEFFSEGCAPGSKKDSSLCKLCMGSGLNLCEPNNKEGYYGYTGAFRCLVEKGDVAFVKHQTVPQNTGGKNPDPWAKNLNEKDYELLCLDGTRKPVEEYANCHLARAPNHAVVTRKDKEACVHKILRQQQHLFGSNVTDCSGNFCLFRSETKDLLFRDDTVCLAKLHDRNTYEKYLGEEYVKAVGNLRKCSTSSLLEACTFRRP", "test": "phage display panning and phage ELISA", "experimental": "The llama immune phage display library was panned against transferrin that was conjugated to M-280 beads (Invitrogen). Approximately 3×10¹¹ phages were added to the beads and incubated at 37° C. for 2 hours for antigen binding. After disposal of unbound phages, the beads were washed six times with phosphate buffered saline supplemented with 0.05% Tween 20 (PBST) for round one, and the washes were increased by one for each additional round. Phages were eluted by 10 min incubation with 100 μl 100 mM triethylamine, and the eluate was subsequently neutralized with 200 μl 1 M Tris-HCl (pH 7.5). Phages were amplified as described above, but on a smaller scale. After two rounds of panning, eluted phages were used to infect exponentially growing E. coli TG1. Individual colonies were used in phage enzyme-linked immunosorbent assay (ELISA).\nFor phage ELISA, a 96-well microliter plate was coated overnight with 2 μg/ml human transferrin and then blocked with 4% […] phosphate buffered saline (MPBS) for 2 hours at 37° C. Phage from individual clones were pre-blocked with 4% MPBS overnight, added to the pre-blocked wells and incubated for 1 hour. Phage ELISA was performed using the GE Healthcare Detection Module Recombinant Phage Antibody System (GE Healthcare, Uppsala, Sweden) and positive phage clones were sequenced.", "values": [
      {"binder": "B1", "binding result": "binds"},
      {"binder": "B2", "binding result": "binds"},
      {"binder": "B3", "binding result": "binds"},
      {"binder": "B4", "binding result": "binds"},
      {"binder": "B5", "binding result": "binds"},
      {"binder": "B6", "binding result": "binds"},
      {"binder": "B7", "binding result": "binds"},
      {"binder": "B8", "binding result": "binds"},
      {"binder": "B9", "binding result": "binds"},
      {"binder": "B10", "binding result": "binds"}
    ]},
    {"target": "monkey transferrin (monkey)", "test": "SPR, transferrin immobilized, sdAb as analyte", "units": {"Kd": "nM", "koff": "s⁻¹", "kon": "M⁻¹ s⁻¹"}, "values": [
      {"binder": "B11", "Kd": 0.25, "koff": "7.58e-05", "kon": 304000},
      {"binder": "B12", "Kd": 1.12, "koff": 0.000529, "kon": 471000},
      {"binder": "B13", "Kd": 2.4, "koff": 0.000593, "kon": 247000}
    ]},
    {"target": "T1, human transferrin", "test": "SPR, transferrin immobilized, sdAb as analyte", "units": {"Kd": "nM", "koff": "s⁻¹", "kon": "M⁻¹ s⁻¹"}, "values": [
      {"binder": "B11", "Kd": 1.03, "koff": 0.000209, "kon": 203000},
      {"binder": "B12", "Kd": 2.03, "koff": 0.000695, "kon": 342000},
      {"binder": "B13", "Kd": 5.76, "koff": 0.000642, "kon": 111000}
    ]},
    {"target": "T1, human transferrin", "test": "SPR, Biacore T200, transferrin immobilized on CM5 chip, sdAb as analyte", "experimental": "Experiments were performed using a BIAcore T200 optical sensor platform and research grade CM5 sensor chips (GE Healthcare). Human transferrin was immobilized on the sensor chip surface by standard amine coupling. All experiments were carried out in HEPES buffer [10 mM HEPES (pH 7.4), 150 mM NaCl, 3.4 mM EDTA, 0.005% Tween 20] at 25° C. Antibodies were injected at serial dilutions ranging from 0.25 nM to 16 nM at a flow rate of 30 μl/min unless otherwise indicated. The amount of bound analyte after subtraction from the blank control surface is shown as relative response units (RU). The double referenced sensorgrams from each injection series were analyzed for binding kinetics using BIA evaluation software (GE Healthcare). Dissociation constants (KDs) were calculated from the on- and off-rates (kₒₙ and koff, respectively), as determined by global fitting of the experimental data to a 1:1 Langmuir binding model (Chi²<1).", "units": {"Kd": "nM", "koff": "s⁻¹", "kon": "M⁻¹ s⁻¹"}, "values": [
      {"binder": "B14", "Kd": 0.0131, "koff": 0.000674, "kon": "5.14e+07"},
      {"binder": "B15", "Kd": 0.0671, "koff": "6.22e-05", "kon": 927000}
    ]}
  ]
}
